Measured values published in patent US20230265404, “ENGINEERED MAD7 DIRECTED ENDONUCLEASE” (BIO-TECHNE CORPORATION, published 2023).

Target: T1, MAD7 E962Q (dead MAD7) (Eubacterium rectale, E962Q)
T1 chain: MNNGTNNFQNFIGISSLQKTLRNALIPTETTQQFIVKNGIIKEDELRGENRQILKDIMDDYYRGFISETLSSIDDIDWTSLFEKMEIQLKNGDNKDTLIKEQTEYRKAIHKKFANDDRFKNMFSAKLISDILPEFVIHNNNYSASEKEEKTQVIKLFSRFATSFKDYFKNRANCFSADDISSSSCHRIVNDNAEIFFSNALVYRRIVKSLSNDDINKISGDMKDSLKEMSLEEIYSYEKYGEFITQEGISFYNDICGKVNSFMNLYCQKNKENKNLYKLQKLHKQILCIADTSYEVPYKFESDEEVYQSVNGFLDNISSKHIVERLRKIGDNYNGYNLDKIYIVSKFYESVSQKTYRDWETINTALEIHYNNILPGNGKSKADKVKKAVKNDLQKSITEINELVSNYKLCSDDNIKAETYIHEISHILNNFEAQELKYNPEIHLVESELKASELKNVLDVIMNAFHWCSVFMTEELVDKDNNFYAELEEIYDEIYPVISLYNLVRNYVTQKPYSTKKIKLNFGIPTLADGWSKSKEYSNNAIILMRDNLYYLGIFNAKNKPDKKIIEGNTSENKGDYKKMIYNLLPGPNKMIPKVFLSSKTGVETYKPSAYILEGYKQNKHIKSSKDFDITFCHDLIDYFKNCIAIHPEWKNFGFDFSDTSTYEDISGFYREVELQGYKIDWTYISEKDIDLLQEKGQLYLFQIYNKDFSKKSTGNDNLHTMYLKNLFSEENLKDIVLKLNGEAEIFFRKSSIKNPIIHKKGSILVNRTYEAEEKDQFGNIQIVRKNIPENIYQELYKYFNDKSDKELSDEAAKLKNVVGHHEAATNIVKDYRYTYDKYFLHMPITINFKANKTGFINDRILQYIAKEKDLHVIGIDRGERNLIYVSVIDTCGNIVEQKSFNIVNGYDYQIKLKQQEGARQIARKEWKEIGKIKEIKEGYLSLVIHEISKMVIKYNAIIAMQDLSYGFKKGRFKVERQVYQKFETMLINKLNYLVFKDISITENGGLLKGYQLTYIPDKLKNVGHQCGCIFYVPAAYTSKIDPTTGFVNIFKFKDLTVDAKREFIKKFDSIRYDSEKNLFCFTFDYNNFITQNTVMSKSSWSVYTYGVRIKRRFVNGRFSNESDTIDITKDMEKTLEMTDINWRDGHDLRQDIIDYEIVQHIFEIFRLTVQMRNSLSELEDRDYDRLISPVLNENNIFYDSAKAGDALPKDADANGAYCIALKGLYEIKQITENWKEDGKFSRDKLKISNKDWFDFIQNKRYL
Experiment: EMSA; bound without cutting; PAM TTTA (5', from target sequence); NEB3.1, salmon sperm DNA competitor, 37 C
Settings: tags: C-terminal 6xHis
Procedure: To evaluate catalytic activity the modified MAD7 enzyme, an electrophoretic mobility shift assay (EMSA) was performed. The following reagents were used: [0142] […] salmon sperm DNA (United States Biological D3950-02 DNA, Salmon [0143] (Deoxyribonucleic acid) CAS: 9007-49-2 [0144] 100 pmol MAD7 variant [0145] 5 pmol double stranded, 6FAM labeled target (created as described above) [0146] 50 pmol MAD7 PPIB gRNA [0147] 2 μL NEB3.1 10X (New England Biolabs) [0148] 20 μL total reaction
The MAD7 variant was incubated with MAD7 PPIB gRNA at 37° C. for 15 minutes. Other reagents were added and incubated 37° for 30 minutes. Reactions were analyzed by gel electrophoresis. Samples were run on a 5% Mini-PROTEAN TBE Mini-Gels (Bio-Rad). Gels were pre-run for 15 minutes at 100V in 0.5X TBE running buffer, samples were loaded and run at 200V for 15 minutes. Gels were imaged with ProteinSimple FluorChem M system using blue excitation and green emission filter to detect 6FAM label. Gel was then stained for 15 minutes in ethidium bromide solution and imaged again using blue excitation and orange emission filter to detect DNA, finally the gel was stained with Coomassie stain and imaged with white light. […]

B1: MAD7 PPIB gRNA ; 6FAM PPIB target duplex (ssRNA ; dsDNA)
RNA: UAAUUUCUACUCUUGUAGAUCCGUCACCAAAAUCAGAUUCA
DNA 1: AGATTCTCATAGGATTTTTACCGTCACCAAAATCAGATTCAGAACCACTTCTCTAAA
DNA 2: TTTAGAGAAGTGGTTCTGAATCTGATTTTGGTGACGGTAAAAATCCTATGAGAATCT
Question: Does B1 bind?
Answer: Result: binds
